Consider twelve sequences from a protein production outcome set (Wang et al. 2014).
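Further: failed if final PepcDB status was selected cloned or expressed and not failed if soluble or beyond.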

The nature of the data set: label from the status in PepcDB records.
For the sequence “FGVWVLVPRSFPRCVWFQRSMAVVIRLQGLPIVAGTMDIRHFFSGLTIPDGGVHIVGGELGEAFIVFATDEDARLGMMRTGGTIKGSKVTLLLSSKTEMQNMIELSRRRFETANLDIPPANASRSGPPPSSGMSSRVNLPTTVSNFNNPSPSVVTATTSVHESNKNIQTFSTASVGTAPPNMGASFGSPTFSSTVPSTASPMNTVPPPPIPPIPAMPSLPPMPSIPPIPVPPPVPTLPPVPPVPPIPPVPSVPPMTPLPPMSGMPPLNPPPVAPLPAGMNGSGAPMNLNNNLNPMFLGPLNPVNPIQMNSQSSVKPLPINPDDLYVSVHGMPFSAMENDVRDFFHGLRVDAVHLLKDHVGRNNGNGLVKFLSPQDTFEALKRNRMLMIQRYVEVSPATERQWVAAGGHITFKQNMGPSGQTHPPPQTLPRSKSPSGQKRSRSRSPHEAGFCVYLKGLPFEAENKHVIDFFKKLDIVEDSIYIAYGPNGKATGEGFVEFRNEADYKAALCRHKQYMGNRFIQVHPITKKGMLEKIDMIRKRLQNFSYDQREMILNPEGDVNSAKVCAHITNIPFSITKMDVLQFLEGIPVDENAVHVLVDNNGQGLGQALVQFKNEDDARKSERLHRKKLNGREAFVHVVTLEDMREIEKNPPAQGKKGLKMPVPGNPAVPGMPNAGLPGVGLPSAGLPGAGLPSTGLPGSAITSAGLPGAGMPSAGIPSAGGEEHAFLTVGSKEANNGPPFNFPGNFGGSNAFGPPIPPPGLGGGAFGDARPGMPSVGNSGLPGLGLDVPGFGGGPNNLSGPSGFGGGPQNFGNGPGSLGGPPGFGSGPPGLGSAPGHLGGPPAFGPGPGPGPGPGPIHIGGPPGFASSSGKPGPTVIKVQNMPFTVSIDEILDFFYGYQVIPGSVCLKYNEKGMPTGEAMVAFESRDEATAAVIDLNDRPIGSRKVKLVLG”, the protein production entry was “not failed”.
As for “MRPAHICLAVLVAAVWGVNFTVIEVGLAHFPPLLFSALRFLAAALPAVFFVGRPKVAWKWIVAVGLVLGVAKFGLLFIGMDAGMPAGLSSLVLQIQAVFTALIAFAALGERPTGIRLAGMAVALCGVGLAAVDEGTGGPLGAFALVIGAAVCWGASNVLTRKASPPDPLNFMVWVSTVPVVPLLGLSLLTEGPSADLNALGSLDWQGAGVILYVAWITTVFGFGAWGWLLHRHPASTVAPFSLLVPVFGMSSAALFLGEPIGPMRWGAAALLAGGVALTSLAPGKERSGGPNTLDLRGVGIHEAGR”, the entry is “failed”.
On to “MKIALINENSQASKNHIIYDSLKEATDKKGYQLFNYGMRGEEGESQLTYVQNGLMAAILLNTKAVDFVVTGCGTGVGAMLALNSFPGVVCGLAVDPTDAYLYSQINGGNALSIPYAKGFGWGAELTLKLMFERLFAEEMGGGYPRERVIPEQRNARILNEVKQITHNDLMTILKIIDQDFLKDTISGKYFQEYFFENCQDDEVAAYLKEVLA”, for which the protein production result is listed as “failed”.
Turning to “MPEAGLAQLVPLTAVALLAGVVDAIAGGGGLLTLPALLWTGLPPHLALGTNKGQSVFGSFAALVRFSRAGMVDGRRARLTFPLGLAGSLAGAGLVLLVPPATLRPVVLALLAFAALFVGLRRGPPARPDGGPRPAAPVVAGAIALAIGAYDGFFGPGTGTFLIVAFVALLGDGLAHASAGAKVVNFASNLAAVTLFSIKGVVVWRIAVPMAVAQLAGGWIGAHLAVRRGDALVRRTAVLVTLALAVKLAWDMRS”, the protein production result is listed as “failed”.
Under “MGKRFSSFQAAQIRIARPTGQLDEIIRFYEEGLCLKRIGEFSQHNGYDGVMFGLPHADYHLEFTQYEGGSTAPVPHPDSLLVFYVPNAVELAAITSKLKHMGYQEVESENPYWSNGGVTIEDPDGWRIVFMNSKGISGK” stands “not failed”.
Under “MYTKGSVSTRIAKYLFIILIVAGVISSLSLAIMSSNKYDAEAINISGSLRMQSYRLLYEMQEQPESVETNLRRYHISLHSSALLEVQNQFFTPNVLKHSYQNILQRWTNMEKYARQQDVKNYSKQLTDYVADVDYFVFELQRFSEQKWILGVSVLGFAMLLILLMVSYVIWYTNREVVKPLHLMTKASMQVQMRQFNHIPLDTRKQNELGTLARVFTQMSTELGQLYSRLEEAVNEKTQKLRQTNRTLSTLYQSAQLLNTNTINDKILNQVLNYIFISDHLNFVKVEVMGAEHWDITLGKQDANNELQIETLSVDNEELGVLSWQAGLPCPDPRIMQNLAQMLARALYFHKNLRQKEQLLLMEERSIIARELHDSLAQVLSFLQIQLTLLKHNLKKEDEQSKEKSLAIIANFEQALSGGYAQLRELLATFRLTIQEANLQLALKQVIDSLRSQTTMQMNVNCQLPSQSLNPQQLVHVLQIVREATTNAIKHSQGTVIEISARINAEGEYEILVEDDGVGIPNLEEPEGHYGLNIMAERCRQLNAQLHIHRREQGGTQVKITLPHTLY” stands “failed”; under “MAGTTEITTKPERVVVLDTGELDSVLSLGITPVGMTTTKGANPVPSYLADKVKDVERVGTINELNIEAIAALKPDLIIGSQLRADKLYPQLSDIAPTVFSIRPGSPWKENFLLVGEALGMEKEAEEKLNEYADRVAELKNNVPQNTEVSLVRFMPNKLRLYGNKSLIGVVLADAGLARPEKQNVDDLAVEISPENIDQAAGSVIFYTSYGKPDATGETAVVEGPAWKNLEAVAAGKAHRVNDDVWFLGLGPTGAMEIVSDLHDYLLEHHHHHH”, “not failed”.
As for “MEELKTKGEHGNEEAKKAPATGETETVEKNVAIRRTSTASSEQDLDTFLLGDLEDSDEAPDDGDGSLEDDFDKIGNSDVEDEKQSSKATTNAGNEVSC”, the protein production entry is listed as “failed”.
As for “MSLEAAGGIVWRWKAGSDIANDPAIASSKSAQEQLDSIEVCIVHRPKYDDWSWPKGKLEQNETHRHAAVREIGEETGSPVKLGPYLCEVEYPLSEEGKKTRHSHDCTADTKHTLYWMAQPISADDAEHLLDAFGPVHRADVGEINDIVWVSVREARKILSHSTDKDTLAVFVDRVQEGAATAQNLLIVRHAKAESRKSWKGTDANRPITPKGAAMAFALNRELACFNPTRLATSPWLRCQETLQVLSWQTERPMEHINTLTEDAFAEHPAVSWLAFREQITQTLNSRETTAICMHRPVIGGMYDHLRGLCARKQLAKQLIAKSPYMPTGTAMSLFIIDTPQGPSIIDIQKVSPIVYEGHHHHHH”, the entry is “not failed”; as for “MGVVHHSVYAVYLEAARVDFLERAGLPYHRVEARGVFFPVVELGLTFRAPARFGEVVEVRTRLAELSSRALLFRYRVEREGVLLAEGFTRHLCQVGERAARIPEDIYRALSVLHLK”, “not failed”.
As for “MTPGSNIPLSAARVTVDVAAPVRLDVSGLLLTADGKVRSDDDFIFYNQPTGQGVTYRSGGGSAPDAIVVDTSAVPPGIEKIVVTASPDAAGQTFQGIEPTATIRNADDNAVLATFTPPQLGTETALVIVEVYLRNGAWKARAVGQGYSNGLAGIATDFGVTVEEPAAPATPPQPQAVTPPPPPAAAPTMPAAPPAPPAAPPAPAPGTGKINLDKGRVSLQKNQTVSLVKGGRPVLSQVKMGLGWEPAYRGKDIDLDASVIAYGPQRNHIDSCYFGKLSIVNGAIKHSGDNLTGEGGGDDEVIVVDLGRLPQEVSGLVFTVNSFSGQKFTEVAKAYCRLIDAASGEELVRFDLTSAEPQTGVMMAKLIRQYSGEWEMTAIGDFVKSRTVRGMVKPAAQAL”, the entry is “failed”; as for “MKKLILYTLILLLMSCRSTQEVDTSVYMDAKQPVDKRVEALLAQMTLEEKVGQMDMVTVWDKEAIFKNGYYDFGAWLADLEPEECNQLQKLSEQTRLKIPYLIGMDAAHGYAMLTGRTIFPTSISMAATFNRELIYRTTSKAGEEIRSSGIHWAFAPCIDIVQDARWGRTGETYGEDPFLTSELVKEAIRGYQGNENPFKKVAVSVKHLVGGGASVGGCNHASAELSERALRSYFLPPFKAAIEAGCMTIMPGHNDIAGVPVHASKWLLTDIIKQEYGFKGFFISDMGDVENLATSLHQIAENQKEAVCKSVNAGLDMHMYSADSARFVSPLVELVREKKVSSRRIDDAVRRILKIKFELGLFEKRYVSPEEDSYGSKENKALALEAAREAIVLLKNDRQILPLDRTKYKKILVTGPNADNQSILGDWSIFQPDDHVTTILEGIQAAASPEQSILYSNSGRIKAKKSDLSVNTTDPAIQKKLITEGGGISDYSIDDAVRKARQSDLAIVAIGGYGIRSEWGLRTYGESADRPSIDFYGRQLELVQAIHATGTPVVIVIVNGKPLNNEWITKNIPTIVDVWEPGMYGGQALAEILFGEVNPSGKLPITIPKHAGQIPMYYYQRPSRYWTGYGLGSSREDEKPAFCFGHGLSYTSYEYSGLKIDSVIPQTQDIEFTFTVKNTGNMAGKETALVFIRDCVSSVVTPVACLKGFEKVSLNPGESKDIRIVIPYSDLGLWNEDMKYVVESGKFNLMIGRSVEDIRIKKDFFIK”, “failed”.
